# Laboratory results as given in patent US7192735.
# Values joined by “and” are separate entries in the source; they are usually repeats but may differ in a detail not shown here. Identical values can stand only once.
# Columns and labels:
# [1] = molecular target: EntF (E. coli enterobactin synthetase component), apo form (UniProt P11454)
# [2] = molecular target: His6-SrfB1 (N-terminal hexa-histidine-tagged SrfB1 valine-activating domain of surfactin synthetase) (Bacillus) (UniProt Q04747); assay: cell-based or functional assay
# [3] = molecular target: E. coli fatty acid synthase apo-acyl carrier protein (apo-ACP) (UniProt P0A6A8)
# [4] = molecular target: T1, His6-SrfB1 (N-terminal hexa-histidine-tagged SrfB1 valine-activating domain of surfactin synthetase) (UniProt Q04747)
# T1 sequence: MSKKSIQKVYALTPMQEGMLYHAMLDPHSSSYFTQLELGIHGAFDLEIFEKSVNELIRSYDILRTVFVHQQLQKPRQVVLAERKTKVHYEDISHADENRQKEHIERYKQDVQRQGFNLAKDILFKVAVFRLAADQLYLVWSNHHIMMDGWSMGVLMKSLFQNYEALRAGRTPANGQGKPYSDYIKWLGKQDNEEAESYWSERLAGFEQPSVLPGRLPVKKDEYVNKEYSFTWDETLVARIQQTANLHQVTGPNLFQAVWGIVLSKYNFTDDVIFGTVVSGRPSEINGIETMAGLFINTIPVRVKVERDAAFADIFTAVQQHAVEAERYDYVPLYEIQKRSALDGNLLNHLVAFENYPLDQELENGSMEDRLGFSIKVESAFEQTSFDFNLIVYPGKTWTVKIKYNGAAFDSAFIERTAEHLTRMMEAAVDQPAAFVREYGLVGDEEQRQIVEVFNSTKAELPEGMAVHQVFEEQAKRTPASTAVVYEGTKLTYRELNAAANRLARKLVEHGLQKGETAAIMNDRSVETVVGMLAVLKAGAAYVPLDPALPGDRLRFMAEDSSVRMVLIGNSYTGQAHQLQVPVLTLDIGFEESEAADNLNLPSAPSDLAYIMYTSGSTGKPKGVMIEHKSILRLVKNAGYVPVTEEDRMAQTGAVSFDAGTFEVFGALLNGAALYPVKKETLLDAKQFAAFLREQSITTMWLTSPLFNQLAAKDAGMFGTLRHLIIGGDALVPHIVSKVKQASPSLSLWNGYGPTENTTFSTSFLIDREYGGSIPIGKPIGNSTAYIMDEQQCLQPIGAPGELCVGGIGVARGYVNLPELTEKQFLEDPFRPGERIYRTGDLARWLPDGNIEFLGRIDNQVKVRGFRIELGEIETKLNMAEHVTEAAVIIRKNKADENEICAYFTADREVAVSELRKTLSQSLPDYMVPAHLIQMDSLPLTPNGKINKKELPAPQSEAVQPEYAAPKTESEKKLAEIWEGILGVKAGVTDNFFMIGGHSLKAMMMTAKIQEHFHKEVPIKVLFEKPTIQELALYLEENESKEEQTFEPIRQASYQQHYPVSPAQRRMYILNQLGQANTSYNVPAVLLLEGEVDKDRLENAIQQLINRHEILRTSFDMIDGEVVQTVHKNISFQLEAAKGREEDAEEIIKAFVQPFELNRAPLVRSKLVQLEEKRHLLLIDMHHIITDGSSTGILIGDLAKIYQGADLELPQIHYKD
# [5] = test system: His6-peptidyl carrier protein (PCP domain of TycA, hexa-histidine tagged)
# [6] = test system: Lactobacillus casei D-Alanyl carrier protein (apo-Dcp)
# [7] = test system: Rhizobial NodF (wild-type)
# [8] = test system: Streptomycete ACP involved in frenolicin polyketide antibiotic biosynthesis (apo-form)
# [9] = test system: Streptomycete ACP involved in granaticin polyketide antibiotic biosynthesis (apo-form)
# [10] = test system: Streptomycete ACP involved in oxytetracycline polyketide antibiotic biosynthesis (apo-form)
# [11] = test system: Streptomycete ACP involved in tetracenomycin polyketide antibiotic biosynthesis (apo-form)
# Chain of EntF (E. coli enterobactin synthetase component), apo form (P11454 whole entry, the tested form may be a part): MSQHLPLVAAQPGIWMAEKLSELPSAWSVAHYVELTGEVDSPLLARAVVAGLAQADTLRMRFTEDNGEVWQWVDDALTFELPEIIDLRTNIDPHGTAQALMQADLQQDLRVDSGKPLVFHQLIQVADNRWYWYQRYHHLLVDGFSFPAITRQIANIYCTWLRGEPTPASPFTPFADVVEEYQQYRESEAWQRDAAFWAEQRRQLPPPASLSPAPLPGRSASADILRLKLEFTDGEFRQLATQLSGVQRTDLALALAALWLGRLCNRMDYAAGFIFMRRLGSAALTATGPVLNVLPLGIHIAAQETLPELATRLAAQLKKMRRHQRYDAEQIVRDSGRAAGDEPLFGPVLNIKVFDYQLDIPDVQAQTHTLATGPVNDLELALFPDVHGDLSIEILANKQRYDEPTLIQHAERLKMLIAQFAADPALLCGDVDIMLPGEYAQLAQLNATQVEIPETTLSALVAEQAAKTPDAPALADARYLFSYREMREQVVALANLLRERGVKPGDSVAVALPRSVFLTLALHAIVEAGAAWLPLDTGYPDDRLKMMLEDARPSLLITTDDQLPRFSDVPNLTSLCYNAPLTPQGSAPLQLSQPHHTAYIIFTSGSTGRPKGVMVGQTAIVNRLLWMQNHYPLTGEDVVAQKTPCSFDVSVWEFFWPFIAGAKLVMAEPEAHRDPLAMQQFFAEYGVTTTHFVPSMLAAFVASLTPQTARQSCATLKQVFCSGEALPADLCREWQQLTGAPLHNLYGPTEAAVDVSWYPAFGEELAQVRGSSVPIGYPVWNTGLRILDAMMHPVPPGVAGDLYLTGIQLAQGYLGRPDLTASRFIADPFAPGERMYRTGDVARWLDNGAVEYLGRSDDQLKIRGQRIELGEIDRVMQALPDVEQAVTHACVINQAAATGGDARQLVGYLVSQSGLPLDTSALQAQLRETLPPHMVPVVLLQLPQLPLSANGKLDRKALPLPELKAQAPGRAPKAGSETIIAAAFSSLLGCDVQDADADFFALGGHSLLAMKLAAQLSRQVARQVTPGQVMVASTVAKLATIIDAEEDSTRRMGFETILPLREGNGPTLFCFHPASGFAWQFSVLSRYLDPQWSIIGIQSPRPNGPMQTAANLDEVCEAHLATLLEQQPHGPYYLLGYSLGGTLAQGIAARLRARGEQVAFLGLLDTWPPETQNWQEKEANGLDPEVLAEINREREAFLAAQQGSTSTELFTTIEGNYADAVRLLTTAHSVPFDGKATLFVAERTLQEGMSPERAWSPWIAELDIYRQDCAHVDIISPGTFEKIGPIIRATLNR
# Chain of E. coli fatty acid synthase apo-acyl carrier protein (apo-ACP) (P0A6A8 2-78): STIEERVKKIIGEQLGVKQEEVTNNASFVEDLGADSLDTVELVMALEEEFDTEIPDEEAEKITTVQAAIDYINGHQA
substance,measurement,setting,value
"EntD (E. coli), recombinant from pET28b-entD",incorporation of [3H]-4'-Ppant,[1],EntD is capable of phosphopantetheinylating an EntF fragment
same,time course of incorporation of radiolabel into EntF,[1],EntF is modified effectively by EntD (100 nM)
Sfp (B. subtilis phosphopantetheinyl transferase) (enzyme),level of [^14C]-L-valine-holo-SrfB1 covalent complex formed,[2],14 fold
Sfp (B. subtilis phosphopantetheinyl transferase),phosphopantetheinylation,[3],Sfp efficiently catalyzes modification of all three substrates
same,incorporation of [3H]-4'-Ppant,[4],Sfp is capable of phosphopantetheinylating an SfrB1 fragment
same,[3H]-4'-Ppant incorporated versus substrate concentration,[5],"Sfp is capable of phosphopantetheinylating a substrate, such as PCP, in a wide range of concentrations"
same,phosphopantetheinylation,[5],Sfp efficiently catalyzes modification of all three substrates
Escherichia coli holo-acyl carrier protein synthase (ACPS),[3H]phosphopantetheine incorporated (+ ACPS),ACP-NodF chimera,122 000 dpm
same,% conversion,[3],46% conversion
same,Km value for apo-ACP,[3],we were able to assign an upper limit of ˜1 µM to the Km value for apo-ACP
same,[3H]phosphopantetheine incorporated (+ ACPS),[3],1 320 000 dpm
same,apparent kcat,[3],An apparent kcat value of about 10 min^-1 was measured at saturating CoA and 50 µM apo-ACP
same,radioactivity incorporated into the protein fraction (ACP + ACPS),[3],2.13 × 10^6 (±.65%) and 2.20 × 10^6 (±.64%) and 2.21 × 10^6 (±.63%)
same,time course of holo-ACP formation,[3],almost exclusive modification of apo-ACP by ACPS
same,time course of incorporation of radiolabel into EntF,[1],EntF undergoes almost no modification in the presence of 15-fold higher concentrations of ACPS and o195
same,[^3H] holo-Dcp formed versus apo-Dcp,[6],the amount of holo-Dcp formed increases linearly with the amount of apo-Dcp in the reaction
same,radioactivity incorporated into the protein fraction (Dcp + ACPS),[6],0.98 × 10^6 (±0.95%) and 1.04 × 10^6 (±0.93%) and 1.00 × 10^6 (±0.77%)
same,% conversion,[7],47% conversion
same,[3H]phosphopantetheine incorporated (+ ACPS),[7],236 000 dpm
same,phosphopantetheinylation,[8],"E. coli ACPS modifies the apo-form of Streptomycete ACPs involved in frenolicin, granaticin, oxytetracycline, and tetracenomycin polyketide antibiotic biosynthesis"
same,phosphopantetheinylation,[9],"E. coli ACPS modifies the apo-form of Streptomycete ACPs involved in frenolicin, granaticin, oxytetracycline, and tetracenomycin polyketide antibiotic biosynthesis"
same,phosphopantetheinylation,[10],"E. coli ACPS modifies the apo-form of Streptomycete ACPs involved in frenolicin, granaticin, oxytetracycline, and tetracenomycin polyketide antibiotic biosynthesis"
same,phosphopantetheinylation,[11],"E. coli ACPS modifies the apo-form of Streptomycete ACPs involved in frenolicin, granaticin, oxytetracycline, and tetracenomycin polyketide antibiotic biosynthesis"
